# Source: publication PMC10613257, “Cryo-EM structure of human PAPP-A2 and mechanism of substrate recognition” (Communications Chemistry, 2023)
# B1: Pregnancy-Associated Plasma Protein A (PAPP-A), wild type (enzyme, UniProt Q13219 82-1627, looked up)
# chain: EARGATEEPSPPSRALYFSGRGEQLRLRADLELPRDAFTLQVWLRAEGGQRSPAVITGLYDKCSYISRDRGWVVGIHTISDQDNKDPRYFFSLKTDRARQVTTINAHRSYLPGQWVYLAATYDGQFMKLYVNGAQVATSGEQVGGIFSPLTQKCKVLMLGGSALNHNYRGYIEHFSLWKVARTQREILSDMETHGAHTALPQLLLQENWDNVKHAWSPMKDGSSPKVEFSNAHGFLLDTSLEPPLCGQTLCDNTEVIASYNQLSSFRQPKVVRYRVVNLYEDDHKNPTVTREQVDFQHHQLAEAFKQYNISWELDVLEVSNSSLRRRLILANCDISKIGDENCDPECNHTLTGHDGGDCRHLRHPAFVKKQHNGVCDMDCNYERFNFDGGECCDPEITNVTQTCFDPDSPHRAYLDVNELKNILKLDGSTHLNIFFAKSSEEELAGVATWPWDKEALMHLGGIVLNPSFYGMPGHTHTMIHEIGHSLGLYHVFRGISEIQSCSDPCMETEPSFETGDLCNDTNPAPKHKSCGDPGPGNDTCGFHSFFNTPYNNFMSYADDDCTDSFTPNQVARMHCYLDLVYQGWQPSRKPAPVALAPQVLGHTTDSVTLEWFPPIDGHFFERELGSACHLCLEGRILVQYASNASSPMPCSPSGHWSPREAEGHPDVEQPCKSSVRTWSPNSAVNPHTVPPACPEPQGCYLELEFLYPLVPESLTIWVTFVSTDWDSSGAVNDIKLLAVSGKNISLGPQNVFCDVPLTIRLWDVGEEVYGIQIYTLDEHLEIDAAMLTSTADTPLCLQCKPLKYKVVRDPPLQMDVASILHLNRKFVDMDLNLGSVYQYWVITISGTEESEPSPAVTYIHGSGYCGDGIIQKDQGEQCDDMNKINGDGCSLFCRQEVSFNCIDEPSRCYFHDGDGVCEEFEQKTSIKDCGVYTPQGFLDQWASNASVSHQDQQCPGWVIIGQPAASQVCRTKVIDLSEGISQHAWYPCTISYPYSQLAQTTFWLRAYFSQPMVAAAVIVHLVTDGTYYGDQKQETISVQLLDTKDQSHDLGLHVLSCRNNPLIIPVVHDLSQPFYHSQAVRVSFSSPLVAISGVALRSFDNFDPVTLSSCQRGETYSPAEQSCVHFACEKTDCPELAVENASLNCSSSDRYHGAQCTVSCRTGYVLQIRRDDELIKSQTGPSVTVTCTEGKWNKQVACEPVDCSIPDHHQVYAASFSCPEGTTFGSQCSFQCRHPAQLKGNNSLLTCMEDGLWSFPEALCELMCLAPPPVPNADLQTARCRENKHKVGSFCKYKCKPGYHVPGSSRKSKKRAFKTQCTQDGSWQEGACVPVTCDPPPPKFHGLYQCTNGFQFNSECRIKCEDSDASQGLGSNVIHCRKDGTWNGSFHVCQEMQGQCSVPNELNSNLKLQCPDGYAIGSECATSCLDHNSESIILPMNVTVRDIPHWLNPTRVERVVCTAGLKWYPHPALIHCVKGCEPFMGDNYCDAINNRAFCNYDGGDCCTSTVKTKKVTPFPMSCDLQGDCACRDPQAQEHSRKDLRGYSHG
# notes: PAPP-A, mature form of 1547 amino acids after processing of the pro-peptide. numbers count on: the mature protein; also called FL PAPP-A; dimeric PAPP-A; source: Expi293F, secreted into the culture medium, purified (anti-FLAG, Superose 6 SEC)
# Target: the molecule itself
# Test: SEC; Superose 6 Increase 10/300 in 1X PBS
protein,measurement,value
B1,stoichiometry N,2
